PMC9160021, “Artificial intelligence-assisted cryoEM structure of Bfr2-Lcp5 complex observed in the yeast small subunit processome” (Communications Biology, 2022)

T1: MBP-Bfr2(266–432) (S. cerevisiae (genomic DNA of BY4741 …, UniProt Q06631 266-432))
T1 construct: source: E. coli Rosetta(DE3); in lysate (pull-down in cell) and purified (amylose, monoQ, gel filtration)
T1 sequence (looked up): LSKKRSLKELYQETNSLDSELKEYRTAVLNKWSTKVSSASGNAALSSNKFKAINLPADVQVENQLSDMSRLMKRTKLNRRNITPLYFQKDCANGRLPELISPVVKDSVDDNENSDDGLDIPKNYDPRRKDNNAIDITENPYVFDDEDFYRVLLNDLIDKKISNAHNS

T2: Enp2 (S. cerevisiae (endogenous in yeast …, UniProt P48234 1-707))
T2 construct: Enp2, S. cerevisiae, endogenous in the Δpih1-90S; its β-propeller is named as the part that Bfr2 touches; Endogenous protein of the 90S particle
T2 sequence (looked up): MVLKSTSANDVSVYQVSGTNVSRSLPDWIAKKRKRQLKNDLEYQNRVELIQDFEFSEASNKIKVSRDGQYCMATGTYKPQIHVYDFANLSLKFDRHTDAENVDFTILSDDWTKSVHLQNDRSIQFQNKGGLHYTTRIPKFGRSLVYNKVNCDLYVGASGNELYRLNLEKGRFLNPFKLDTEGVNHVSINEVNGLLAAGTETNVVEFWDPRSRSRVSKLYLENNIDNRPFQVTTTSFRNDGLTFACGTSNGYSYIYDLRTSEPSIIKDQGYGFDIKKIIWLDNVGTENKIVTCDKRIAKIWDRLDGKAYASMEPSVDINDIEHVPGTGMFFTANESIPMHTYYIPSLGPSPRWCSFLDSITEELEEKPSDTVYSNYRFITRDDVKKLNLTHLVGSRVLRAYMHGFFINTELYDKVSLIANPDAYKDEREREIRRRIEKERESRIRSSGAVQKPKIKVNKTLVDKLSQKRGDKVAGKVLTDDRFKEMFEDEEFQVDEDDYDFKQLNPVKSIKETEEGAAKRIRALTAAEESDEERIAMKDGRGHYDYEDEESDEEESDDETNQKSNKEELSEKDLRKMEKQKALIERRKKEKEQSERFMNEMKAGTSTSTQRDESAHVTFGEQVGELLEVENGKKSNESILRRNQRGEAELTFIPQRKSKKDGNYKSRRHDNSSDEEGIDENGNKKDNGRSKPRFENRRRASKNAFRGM

B1: His-Lcp5(1–160) (domain or fragment, S. cerevisiae, UniProt P40079 1-160, looked up)
chain: MSELNALLKDINGSLTATSESLERLSGIYSNSATDEIPESNQLHEHLFYDAKKPAEKVSLLSLKNGSMLGYINSLLMLIGNRLDDECKDPSAMDARERSIQHRVVLERGVKPLEKKLAYQLDKLTRAYVKMEKEYKDAEKRALEKSTLVNHSGNDDSEDD
notes: Lcp5, S. cerevisiae, residues 1–160, polyhistidine tagged; The methods describe only the cloning of the untagged Lcp5(1–160); also called polyhistidine tagged Lcp5 fragment 1–160; source: bacteria expression host, purified
B2: Bfr2 (natural protein, UniProt Q06631 1-534, looked up)
chain: MEKSLADQISDIAIKPVNKDFDIEDEENASLFQHNEKNGESDLSDYGNSNTEETKKAHYLEVEKSKLRAEKGLELNDPKYTGVKGSRQALYEEVSENEDEEEEEEEEEEKEEDALSFRTDSEDEEVEIDEEESDADGGETEEAQQKRHALSKLIQQETKQAINKLSQSVQRDASKGYSILQQTKLFDNIIDLRIKLQKAVIAANKLPLTTESWEEAKMDDSEETKRLLKENEKLFNNLFNRLINFRIKFQLGDHITQNEEVAKHKLSKKRSLKELYQETNSLDSELKEYRTAVLNKWSTKVSSASGNAALSSNKFKAINLPADVQVENQLSDMSRLMKRTKLNRRNITPLYFQKDCANGRLPELISPVVKDSVDDNENSDDGLDIPKNYDPRRKDNNAIDITENPYVFDDEDFYRVLLNDLIDKKISNAHNSESAAITITSTNARSNNKLKKNIDTKASKGRKLNYSVQDPIANYEAPITSGYKWSDDQIDEFFAGLLGQRVNFNENEDEEQHARIENDEELEAVKNDDIQIFG
notes: Bfr2, S. cerevisiae, endogenous in the Δpih1-90S; the whole protein is 1–534; Endogenous protein of the 90S particle; only part of it is modelled in the map
B3: Lcp5 (natural protein, UniProt P40079 1-357, looked up)
chain: MSELNALLKDINGSLTATSESLERLSGIYSNSATDEIPESNQLHEHLFYDAKKPAEKVSLLSLKNGSMLGYINSLLMLIGNRLDDECKDPSAMDARERSIQHRVVLERGVKPLEKKLAYQLDKLTRAYVKMEKEYKDAEKRALEKSTLVNHSGNDDSEDDESSEDEIAYRPNTSGIINTNKKSSAYRVEETAKQENGEENDDNETGVYKPPKITAVLPPQQTHFEDRFDAREHKDRSNKSRMQAMEEYIRESSDQPDWSASIGADIVNHGRGGIKSLRDTEKERRVTSFEEDNFTRLNITNKAEKRKQKQRERNARMNVIGGEDFGIFSSKRKLEDSTSRRGAKKTRSAWDRAQRRL
notes: Lcp5, S. cerevisiae, endogenous in the Δpih1-90S; the newly modelled N-terminal domain holds residues 1–141; Endogenous protein of the 90S particle; only part of it is modelled in the map

Legend:
Details in all cases: both partners purified
MBP-Bfr2(266–432) = molecular target: T1, MBP-Bfr2(266–432); test: pull-down; in vitro: purified MBP, MBP-Bfr2(360–432) or MBP-Bfr2(266–432) as bait with purified His-Lcp5(1–160)
Enp2 = molecular target: T2, Enp2; test: cryo-EM structure; Δpih1-90S purified from yeast by tandem affinity (Pwp2-TAP on IgG Sepharose, Kre33-TwinStrep on Strep-Tactin); 3.99 Å overall, 5.04 Å for the head (5' domain) where Bfr2-Lcp5 lies; Bfr2-Lcp5 model placed with the aid of AlphaFold
Bfr2 = molecular target: B2; test: as above

Binder: B1
binding result (MBP-Bfr2(266–432)): binds

Binder: B2
binding result (Enp2): binds

Binder: B3
binding result (Bfr2): binds
